# Measurements published in the supplement of paper PMC9112550, “Optimization of the antimicrobial peptide Bac7 by deep mutational scanning” (BMC Biology, 2022).
# System: Escherichia coli TOP10
# Assay: shrunken log2 fold change of peptide-encoding DNA abundance (4.5 h post-induction vs induction); higher = less antimicrobial activity (less host growth inhibition)
# Settings: time post-induction: 4.5 h; library: site-saturation at positions 5, 18, 19, 20
# 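Further: peptides expressed intracellularly from a pBAD plasmid library in pooled LB shake-flask culture, induced with 0.3% L-arabinose, DNA abundance read by NGS, three biological replicates, DESeq2 with apeglm shrinkage.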
row,Sequence,shrunken log2 fold change
1,RRIRDRPPRLPRPRPRPIDCPRP,0.0306
2,RRIRPRPPRLPRPRPRPRKKPRP,0.0638
3,RRIRSRPPRLPRPRPRPSGCPRP,0.208
4,RRIRTRPPRLPRPRPRPFMEPRP,-0.228
5,RRIRTRPPRLPRPRPRPLGYPRP,-0.213
6,RRIRMRPPRLPRPRPRPGYGPRP,0.148
7,RRIRFRPPRLPRPRPRPSIKPRP,-0.42
8,RRIRNRPPRLPRPRPRPAMDPRP,0.166
9,RRIRERPPRLPRPRPRPNDVPRP,0.0254
10,RRIRSRPPRLPRPRPRPICFPRP,-0.15
11,RRIRPRPPRLPRPRPRPYPKPRP,-0.0921
12,RRIRCRPPRLPRPRPRPANCPRP,-0.364
13,RRIRCRPPRLPRPRPRPSISPRP,-0.136
14,RRIRRRPPRLPRPRPRPRVPPRP,0.745
15,RRIRCRPPRLPRPRPRPWPSPRP,-0.0603
16,RRIRHRPPRLPRPRPRPADRPRP,-0.0209
17,RRIRARPPRLPRPRPRPGTVPRP,0.336
18,RRIRDRPPRLPRPRPRPARLPRP,0.382
19,RRIRGRPPRLPRPRPRPDYLPRP,0.115
20,RRIRPRPPRLPRPRPRPYLNPRP,-0.765
21,RRIRQRPPRLPRPRPRPMFHPRP,-0.815
22,RRIRARPPRLPRPRPRPDSPPRP,0.342
23,RRIRQRPPRLPRPRPRPTCEPRP,0.0552
24,RRIRLRPPRLPRPRPRPMFAPRP,0.082
25,RRIRGRPPRLPRPRPRPVDEPRP,1.05

row,Sequence,shrunken log2 fold change
1,RRIRTRPPRLPRPRPRPCTFPRP,-0.241
2,RRIRLRPPRLPRPRPRPGAFPRP,-0.0131
3,RRIRIRPPRLPRPRPRPRCEPRP,-0.0571
4,RRIRKRPPRLPRPRPRPGFFPRP,0.786
5,RRIRSRPPRLPRPRPRPDRDPRP,-0.0344
6,RRIRMRPPRLPRPRPRPCKTPRP,-0.00146
7,RRIRTRPPRLPRPRPRPSYMPRP,-1.28
8,RRIRRRPPRLPRPRPRPALKPRP,0.366
9,RRIRARPPRLPRPRPRPRASPRP,0.797
10,RRIRRRPPRLPRPRPRPLARPRP,0.153
11,RRIRSRPPRLPRPRPRPWGLPRP,0.0137
12,RRIRWRPPRLPRPRPRPTSEPRP,0.116
13,RRIRLRPPRLPRPRPRPECQPRP,-0.00577
14,RRIRMRPPRLPRPRPRPMATPRP,0.0129
15,RRIRDRPPRLPRPRPRPKNPPRP,-0.128
16,RRIRERPPRLPRPRPRPTPFPRP,-0.211
17,RRIRTRPPRLPRPRPRPPRMPRP,0.165
18,RRIRARPPRLPRPRPRPDNNPRP,-0.154
19,RRIRVRPPRLPRPRPRPEFTPRP,-0.0269
20,RRIRDRPPRLPRPRPRPAQWPRP,0.395
21,RRIRHRPPRLPRPRPRPTVDPRP,-0.0548
22,RRIRERPPRLPRPRPRPWGWPRP,0.173
23,RRIRCRPPRLPRPRPRPTWIPRP,0.24
24,RRIRCRPPRLPRPRPRPGDLPRP,-0.314
25,RRIRIRPPRLPRPRPRPGCRPRP,0.0314

row,Sequence,shrunken log2 fold change
1,RRIRMRPPRLPRPRPRPWCMPRP,-0.0453
2,RRIRGRPPRLPRPRPRPHAFPRP,0.372
3,RRIRKRPPRLPRPRPRPFLHPRP,-0.0903
4,RRIRNRPPRLPRPRPRPNKLPRP,-0.36
5,RRIRMRPPRLPRPRPRPPTQPRP,0.785
6,RRIRWRPPRLPRPRPRPPYWPRP,0.204
7,RRIRIRPPRLPRPRPRPHPGPRP,-0.571
8,RRIRKRPPRLPRPRPRPYALPRP,-0.119
9,RRIRYRPPRLPRPRPRPFEMPRP,-0.738
10,RRIRMRPPRLPRPRPRPTSQPRP,0.393
11,RRIRVRPPRLPRPRPRPRGIPRP,0.235
12,RRIRMRPPRLPRPRPRPNKAPRP,-0.05
13,RRIRLRPPRLPRPRPRPITFPRP,0.0415
14,RRIRDRPPRLPRPRPRPLAFPRP,0.334
15,RRIRMRPPRLPRPRPRPWCGPRP,0.134
16,RRIRQRPPRLPRPRPRPCLCPRP,-0.294
17,RRIRSRPPRLPRPRPRPGNHPRP,-0.311
18,RRIRKRPPRLPRPRPRPNCQPRP,-0.263
19,RRIRPRPPRLPRPRPRPDTYPRP,-0.623
20,RRIRHRPPRLPRPRPRPKPWPRP,0.528
21,RRIRLRPPRLPRPRPRPLGPPRP,0.332
22,RRIRGRPPRLPRPRPRPWDEPRP,0.0077
23,RRIRDRPPRLPRPRPRPIMWPRP,-0.00999
24,RRIRNRPPRLPRPRPRPYSYPRP,0.000362
25,RRIRHRPPRLPRPRPRPSQLPRP,-0.00148
